What was measured:
[1] = target: mTIGIT (ELISA of Table 7) (mouse) (UniProt P86176); assay: mTIGIT/mCD155 competition ELISA; competitor mCD155
[2] = target: mTIGIT (ELISA of Table 7) (mouse) (UniProt P86176); assay: ELISA binding

Chain of mTIGIT (ELISA of Table 7) (mouse) (P86176 29-145 limits assumed): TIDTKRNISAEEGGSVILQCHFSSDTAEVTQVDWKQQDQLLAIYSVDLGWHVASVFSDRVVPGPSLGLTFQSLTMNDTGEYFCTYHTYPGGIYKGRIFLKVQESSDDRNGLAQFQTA

Q: For 1G9 (Bio X Cell, #BE0150) (antibody), which IC50 [1] is on record?
A: 1.5 nM

Q: And the EC50 [2]?
A: 0.3 nM
